Key:
Assay in all cases: steady-state ATPase, coumarin-labelled phosphate-binding protein fluorescence, fit to two allosteric transitions
Format in all cases: biochemical, Saccharomyces cerevisiae
Conditions in all cases: 25 °C, pH 7.5 Tris-HCl, 10 mM MgCl2, 50 mM KCl, 20% glycerol, 1 mM DTT, first ring (stronger site), cooperative
[1] = test system: T1, Nc1ncnc2c1ncn2[C@@H]1O[C@H](COP(=O)(O)OP(=O)(O)OP(=O)(O)O)[C@@H](O)[C@H]1O
T1 construct: native complex from yeast cells, two back-to-back rings each of eight distinct subunits CCT1-CCT8; CCT2 mutations introduced in the chromosomal gene
Excerpt: steady-state ATPase, coumarin-labelled phosphate-binding protein fluorescence, fit to two allosteric transitions on CCT/TRiC (Saccharomyces cerevisiae) | In the case of the wild-type, the values of the apparent ATP binding constants

[2] = test system: T1, Nc1ncnc2c1ncn2[C@@H]1O[C@H](COP(=O)(O)OP(=O)(O)OP(=O)(O)O)[C@@H](O)[C@H]1O; remark: listed apart in the source
Excerpt: steady-state ATPase, coumarin-labelled phosphate-binding protein fluorescence, fit to two allosteric transitions on CCT/TRiC (Saccharomyces cerevisiae) | In the case of the R510H single mutant, the values of the apparent ATP binding

[3] = test system: T1, Nc1ncnc2c1ncn2[C@@H]1O[C@H](COP(=O)(O)OP(=O)(O)OP(=O)(O)O)[C@@H](O)[C@H]1O; remark: listed apart in the source
Excerpt: steady-state ATPase, coumarin-labelled phosphate-binding protein fluorescence, fit to two allosteric transitions on CCT/TRiC (Saccharomyces cerevisiae) | In the case of the T394P single mutant, the values of the apparent ATP binding

## CCT/TRiC (Saccharomyces cerevisiae) (Saccharomyces cerevisiae S288C)
[1]
  K0.5: 8.3 (±1.6) μM
  kcat: 0.043 (±0.005) s^-1

## CCT/TRiC (Saccharomyces cerevisiae) (Saccharomyces cerevisiae S288C; P39076:R510H)
[2]
  K0.5: 7.1 (±2.4) μM
  kcat: 0.10 (±0.03) s^-1

## CCT/TRiC (Saccharomyces cerevisiae) (Saccharomyces cerevisiae S288C; P39076:T394P)
[3]
  K0.5: 8.9 (±3.4) μM
  kcat: 0.11 (±0.03) s^-1
